Data taken from patent US20120264616A1.

Target: receptor for IFN λ expressed by reporter HL116 cells (UniProt Q8IU57)
Experiment: cell-based or functional assay

UniProt Q8IU57, sequence (Q8IU57 21-520 limits assumed): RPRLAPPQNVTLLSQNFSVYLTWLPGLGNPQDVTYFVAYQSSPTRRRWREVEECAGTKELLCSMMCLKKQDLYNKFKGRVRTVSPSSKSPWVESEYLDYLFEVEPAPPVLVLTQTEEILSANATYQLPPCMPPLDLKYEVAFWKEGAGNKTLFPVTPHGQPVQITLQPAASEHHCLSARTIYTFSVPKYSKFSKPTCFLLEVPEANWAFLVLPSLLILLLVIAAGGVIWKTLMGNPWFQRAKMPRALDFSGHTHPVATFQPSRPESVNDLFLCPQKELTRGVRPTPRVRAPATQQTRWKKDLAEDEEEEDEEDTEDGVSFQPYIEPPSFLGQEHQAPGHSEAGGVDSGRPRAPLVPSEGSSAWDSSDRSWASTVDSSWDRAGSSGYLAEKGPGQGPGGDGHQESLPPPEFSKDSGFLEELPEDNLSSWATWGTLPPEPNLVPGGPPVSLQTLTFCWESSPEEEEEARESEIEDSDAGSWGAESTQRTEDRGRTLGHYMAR

## interferon lambda (IFN λ) secreted into the culture supernatant by 293T cell clones transduced with parental lentiviral particles (ligand)
  Luc exp 1, clone 1: 68.2
  Luc exp 1, clone 2: 73.2
  Luc exp 1, clone 3: 80.8
  Luc exp 1, clone 4: 84.3
  Luc exp 1, clone 5: 100
  Luc exp 1, clone 6: 77.7
  Luc exp 1, clone 7: 90.9
  Luc exp 1, clone 8: 88.9
  Luc exp 1, clone 9: 78.7
  Luc exp 1, clone 10: 89.8
  Luc exp 1, clone 11: 95.4
  Luc exp 1, clone 12: 77.2
  Luc exp 1, clone 13: 94.4
  Luc exp 1, clone 14: 89.2
  Luc exp 1, clone 15: 87.6
  Luc exp 1, clone 16: 81.4
  Luc exp 1, clone 17: 79.9
  Luc exp 2, clone 1: 68.8
  Luc exp 2, clone 2: 66.3
  Luc exp 2, clone 3: 87.3
  Luc exp 2, clone 4: 88.1
  Luc exp 2, clone 5: 97.8
  Luc exp 2, clone 6: 88.3
  Luc exp 2, clone 7: 95.1
  Luc exp 2, clone 8: 107
  Luc exp 2, clone 9: 99.2
  Luc exp 2, clone 10: 86.9
  Luc exp 2, clone 11: 75.8
  Luc exp 2, clone 12: 91.6
  Luc exp 2, clone 13: 94.8
  Luc exp 2, clone 14: 72.9
  Luc exp 2, clone 15: 87.8
  Luc exp 2, clone 16: 77.2
  Luc exp 2, clone 17: 71.7
  Luciferase average, clone 1: 68.2
  Luciferase average, clone 2: 69.7
  Luciferase average, clone 3: 84
  Luciferase average, clone 4: 86.3
  Luciferase average, clone 5: 99
  Luciferase average, clone 6: 83
  Luciferase average, clone 7: 93
  Luciferase average, clone 8: 97.9
  Luciferase average, clone 9: 89
  Luciferase average, clone 10: 88.3
  Luciferase average, clone 11: 85.6
  Luciferase average, clone 12: 84.4
  Luciferase average, clone 13: 94.6
  Luciferase average, clone 14: 81.1
  Luciferase average, clone 15: 87.7
  Luciferase average, clone 16: 79.3
  Luciferase average, clone 17: 75.8
